Legend:
[1] = Hydroxybutyryl-CoA dehydrogenase activity (rate of oxidation of NADH, absorbance at 340 nm); type: biochemical
Description: Hydroxybutyryl-CoA dehydrogenase activity was determined by measuring the rate of oxidation of NADH as measured by the decrease in absorbance at 340 nm. A standard assay mixture contained 50 mM MOPS, pH 7.0, 1 mM DTT and 0.2 mM NADH. The cocktail was equilibrated for 5 min at 37° C. and then the cell free extract was added. Reactions were initiated by addition of the substrate, 0.1 mM acetoacetyl-CoA. In one typical assay, the specific activity of the BHBD protein in the induced culture was determined to be 57.4 μmol mg^−1 min^−1 compared to 0.885 μmol mg^−1 min^−1 in the uninduced culture.
(§1) For enzyme activity analysis, a single colony of each strain was streaked onto a fresh plate containing SD minimal drop out medium and incubated at 30° C. for 2 days. The cells on this plate were used to inoculate 20 mL of SD drop out medium and in a 125 mL shake flask and grown overnight at 30° C., with shaking at 250 rpm. The optical density (OD600) of the overnight culture was measured, and the culture was diluted to an OD600=0.1 in 250 mL of the same medium in a 1.0 L shake flask, and grown at 30° C. with shaking at 250 rpm to an OD600 of between 0.8 to 1.0. The cells were then harvested by centrifugation at 2000×g for 10 min, and resuspended in 20 mL of 50 mM Tris-HCl buffer, pH 8.5. Enzyme assays were performed as described above.

[2] = Acetoacetyl-CoA thiolase activity in cell free extracts (decrease in absorbance at 303 nm); type: biochemical
Description: Acetoacetyl-CoA thiolase activity in the cell free extracts was measured as degradation of a Mg^2+-acetoacetyl-CoA complex by monitoring the decrease in absorbance at 303 nm. Standard assay conditions were 100 mM Tris-HCl pH 8.0, 1 mM DTT (dithiothreitol) and 10 mM MgCl2. The cocktail was equilibrated for 5 min at 37° C.; then the cell-free extract was added. The reaction was initiated with the addition of 0.05 mM acetoacetyl-CoA plus 0.2 mM CoA. Protein concentration was measured by either the Bradford method or by the Bicinchoninic Kit (Sigma, catalog no. BCA-1). Bovine serum albumin (Bio-Rad, Hercules, Calif.) was used as the standard in both cases. In one typical assay, the specific activity of the ThlA protein in the induced culture was determined to be 16.0 μmol mg^−1 min^−1 compared to 0.27 μmol mg^−1 min^−1 in the uninduced culture.
as §1

[3] = yeast strain DPD5200 (BY4743/pNY103), standard conditions
[4] = yeast strain DPD5206 (BY4741/pNY102)

| Substance | Hbd activity ([1]; yeast BY4741 containing pNY10, hbd under GPD promoter) | Hbd activity ([1]; yeast strain BY4741 (pNY6), in words) | Hbd enzyme activity [1, 3] | Hbd activity [1, 4] | Hbd activity ([1]; yeast, GALL promoter controlled hbd) | ThlA activity ([2]; yeast BY4741 containing pNY10 (thlA with one base deletion, truncated protein), in words) | ThlA activity ([2]; yeast BY4741 transformed with pNY12 (FBA1 promoter)) | ThlA enzyme activity [2, 3] | ThlA activity [2, 4] |
| --- | --- | --- | --- | --- | --- | --- | --- | --- | --- |
| BHBD: 3-hydroxybutyryl-CoA dehydrogenase encoded by hbd from C. acetobutylicum ATCC 824, SEQ ID NO:6 | 1.8 U/mg | good | 0.21 U/mg | 0.76 U/mg | 0.40 U/mg |  |  |  |  |
| ThlA: acetyl-CoA acetyltransferase encoded by thlA from C. acetobutylicum ATCC 824, SEQ ID NO:2 |  |  |  |  |  | no ThlA activity | 1.66 U/mg | 0.49 U/mg | 1.24 U/mg |

Source: patent US9297028B2, “Fermentive production of four carbon alcohols” (Butamax Advanced Biofuels LLC, priority 2005, dated 2016)
